According to the supplement of paper PMC10065799, “High-throughput profiling of sequence recognition by tyrosine kinases and SH2 domains using bacterial peptide display” (eLife, 2023):

system: c-Src; assay: phosphorylation enrichment, bacterial display (enrichment ratio); higher = better substrate or ligand; peptides without Tyr show the background
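Further: 11-residue human phosphosite peptides and single-mutation variants displayed on the E. coli surface, counted by deep sequencing, each peptide's frequency after selection divided by its frequency in the unselected input library; frequency after pTyr selection over input frequency; kinase dosed for 20-30% of maximal phosphorylation in three min.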

Row | Sequence | phosphorylation enrichment
1 | PRIHSYRGHLW [VHL_Y112_R107P] | 0.748
2 | RELSWYRGQRP [HESX1_Y106_R109Q] | 0.401
3 | STFVPCEIKVQ [L1CAM_Y784_Y784C] | 0.444
4 | NPQKSYFILLF [WAS_Y83_R86L_YF] | 0.337
5 | PADSGYPAYLG [ATP6V1A_Y374] | 0.592
6 | SFPSTYRFERG [INPPL1_Y661_P659S_YF] | 0.569
7 | YGMQLYQKYMH [GRB14_Y347_N349K] | 2.29
8 | RAIGYYSATSK [FAM120A_Y328] | 0.593
9 | IMAFFYMCDRA [CASD1_Y382_YF] | 0.57
10 | EEEPVYKAEPE [HCLS1_Y360_E361K] | 0.717
11 | EEAAGYAQESQ [CAMKV_Y491] | 0.604
12 | RPFFLYVAFHN [SGSH_Y174_D179N] | 0.33
13 | RFLKDYGEFEV [GINS1_Y156_C152Y_YF] | 1.07
14 | FGAHNHHPLPV [OAT_Y55_Y55H_YF] | 0.477
15 | ERSMSYSDESR [SMG1_Y143] | 0.538
16 | DLEKTYNTFRS [B4GALNT2_Y538_A533D_YF] | 1.75
17 | ARAHKYHGGGG [HBB_Y146_L142R] | 0.312

Row | Sequence | phosphorylation enrichment
18 | LTKQEYDEAGP [ACTA1_Y364_I359L] | 0.996
19 | YDGKEYDPVEA [MAPRE2_Y167] | 0.645
20 | KDPPDYKYQPR [SOX9_Y172_H169P] | 0.538
21 | NVLPEYKLQAP [KCNH2_Y388_D383N] | 0.439
22 | VRTGIYHGGEP [PIK3CA_Y361] | 0.498
23 | PLGVLYKVKVY [PTS_Y128_V124L] | 0.36
24 | HKANEYYPVVI [ADAMTS18_Y764_L769I] | 0.427
25 | RAQIRYAQEHD [NSD1_Y1987_R1984Q] | 0.847
26 | RSSKMYPKTRS [LPL_Y329_L330P] | 0.614
27 | IEELTYIIKQD [STX5_Y137] | 0.554
28 | GRVFVYRLSEQ [ITGAE_Y551_YF] | 0.585
29 | IYHLSYLHNCE [PDE6B_Y227] | 2.56
30 | CDGKEYDPVEA [MAPRE2_Y167_Y162C] | 0.649
31 | PGAPAYRVLME [MYO5A_Y1245] | 0.423
32 | AVARPYHIQKW [ACSBG1_Y677_A673V] | 0.401
33 | QRIHNYFEHRF [HCN4_Y554_D553N_YF] | 0.493

target: Jak2 (UniProt O60674); assay: as above
Sequence (O60674 whole entry, looked up): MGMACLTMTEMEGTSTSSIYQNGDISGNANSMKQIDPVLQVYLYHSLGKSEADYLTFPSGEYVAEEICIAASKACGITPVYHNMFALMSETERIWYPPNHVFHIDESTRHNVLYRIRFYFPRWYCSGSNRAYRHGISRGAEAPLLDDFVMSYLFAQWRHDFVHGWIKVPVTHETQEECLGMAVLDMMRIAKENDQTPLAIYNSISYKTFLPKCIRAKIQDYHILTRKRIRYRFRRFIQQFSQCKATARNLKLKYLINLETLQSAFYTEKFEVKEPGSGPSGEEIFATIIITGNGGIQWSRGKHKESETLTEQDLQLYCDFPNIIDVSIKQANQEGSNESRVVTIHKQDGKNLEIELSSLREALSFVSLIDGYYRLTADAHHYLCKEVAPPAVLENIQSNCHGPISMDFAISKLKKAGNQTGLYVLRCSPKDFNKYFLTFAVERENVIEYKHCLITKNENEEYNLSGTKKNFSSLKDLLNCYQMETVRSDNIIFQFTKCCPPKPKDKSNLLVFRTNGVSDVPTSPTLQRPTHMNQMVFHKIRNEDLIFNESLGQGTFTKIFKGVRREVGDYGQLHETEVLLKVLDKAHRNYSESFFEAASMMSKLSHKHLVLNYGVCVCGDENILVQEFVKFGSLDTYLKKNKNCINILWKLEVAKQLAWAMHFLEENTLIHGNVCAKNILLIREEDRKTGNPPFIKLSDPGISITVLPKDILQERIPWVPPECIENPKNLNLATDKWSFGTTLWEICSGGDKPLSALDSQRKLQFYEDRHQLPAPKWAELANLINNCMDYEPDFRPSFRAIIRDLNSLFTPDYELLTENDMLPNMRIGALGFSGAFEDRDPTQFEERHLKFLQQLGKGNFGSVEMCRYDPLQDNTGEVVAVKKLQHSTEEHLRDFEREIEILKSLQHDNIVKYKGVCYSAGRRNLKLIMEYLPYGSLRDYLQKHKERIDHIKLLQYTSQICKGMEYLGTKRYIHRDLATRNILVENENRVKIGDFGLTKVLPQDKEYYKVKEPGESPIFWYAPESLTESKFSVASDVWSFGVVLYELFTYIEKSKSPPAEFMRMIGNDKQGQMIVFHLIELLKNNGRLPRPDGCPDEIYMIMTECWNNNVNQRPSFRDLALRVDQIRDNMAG

Row | Sequence | phosphorylation enrichment
34 | PRIHSYRGHLW [VHL_Y112_R107P] | 0.628
35 | RELSWYRGQRP [HESX1_Y106_R109Q] | 0.956
36 | STFVPCEIKVQ [L1CAM_Y784_Y784C] | 1.39
37 | NPQKSYFILLF [WAS_Y83_R86L_YF] | 1.05
38 | PADSGYPAYLG [ATP6V1A_Y374] | 0.823
39 | SFPSTYRFERG [INPPL1_Y661_P659S_YF] | 0.724
40 | YGMQLYQKYMH [GRB14_Y347_N349K] | 0.561
41 | RAIGYYSATSK [FAM120A_Y328] | 0.73
42 | IMAFFYMCDRA [CASD1_Y382_YF] | 1.64
43 | EEEPVYKAEPE [HCLS1_Y360_E361K] | 1.36
44 | EEAAGYAQESQ [CAMKV_Y491] | 1.2
45 | RPFFLYVAFHN [SGSH_Y174_D179N] | 0.762
46 | RFLKDYGEFEV [GINS1_Y156_C152Y_YF] | 1.13
47 | FGAHNHHPLPV [OAT_Y55_Y55H_YF] | 0.583
48 | ERSMSYSDESR [SMG1_Y143] | 0.876
49 | DLEKTYNTFRS [B4GALNT2_Y538_A533D_YF] | 0.736
50 | ARAHKYHGGGG [HBB_Y146_L142R] | 0.379

Row | Sequence | phosphorylation enrichment
51 | LTKQEYDEAGP [ACTA1_Y364_I359L] | 1.62
52 | YDGKEYDPVEA [MAPRE2_Y167] | 1.22
53 | KDPPDYKYQPR [SOX9_Y172_H169P] | 0.663
54 | NVLPEYKLQAP [KCNH2_Y388_D383N] | 0.813
55 | VRTGIYHGGEP [PIK3CA_Y361] | 0.558
56 | PLGVLYKVKVY [PTS_Y128_V124L] | 1.19
57 | HKANEYYPVVI [ADAMTS18_Y764_L769I] | 2.19
58 | RAQIRYAQEHD [NSD1_Y1987_R1984Q] | 0.911
59 | RSSKMYPKTRS [LPL_Y329_L330P] | 1.43
60 | IEELTYIIKQD [STX5_Y137] | 1.25
61 | GRVFVYRLSEQ [ITGAE_Y551_YF] | 0.927
62 | IYHLSYLHNCE [PDE6B_Y227] | 1.26
63 | CDGKEYDPVEA [MAPRE2_Y167_Y162C] | 1.54
64 | PGAPAYRVLME [MYO5A_Y1245] | 1.06
65 | AVARPYHIQKW [ACSBG1_Y677_A673V] | 0.461
66 | QRIHNYFEHRF [HCN4_Y554_D553N_YF] | 0.34

system: c-Abl (mouse); assay: as above

Row | Sequence | phosphorylation enrichment
67 | PRIHSYRGHLW [VHL_Y112_R107P] | 1.09
68 | RELSWYRGQRP [HESX1_Y106_R109Q] | 0.38
69 | STFVPCEIKVQ [L1CAM_Y784_Y784C] | 1.04
70 | NPQKSYFILLF [WAS_Y83_R86L_YF] | 0.606
71 | PADSGYPAYLG [ATP6V1A_Y374] | 1.14
72 | SFPSTYRFERG [INPPL1_Y661_P659S_YF] | 0.644
73 | YGMQLYQKYMH [GRB14_Y347_N349K] | 0.648
74 | RAIGYYSATSK [FAM120A_Y328] | 0.639
75 | IMAFFYMCDRA [CASD1_Y382_YF] | 1.09
76 | EEEPVYKAEPE [HCLS1_Y360_E361K] | 0.826
77 | EEAAGYAQESQ [CAMKV_Y491] | 0.935
78 | RPFFLYVAFHN [SGSH_Y174_D179N] | 0.472
79 | RFLKDYGEFEV [GINS1_Y156_C152Y_YF] | 0.835
80 | FGAHNHHPLPV [OAT_Y55_Y55H_YF] | 0.579
81 | ERSMSYSDESR [SMG1_Y143] | 0.905
82 | DLEKTYNTFRS [B4GALNT2_Y538_A533D_YF] | 0.523
83 | ARAHKYHGGGG [HBB_Y146_L142R] | 0.474

Row | Sequence | phosphorylation enrichment
84 | LTKQEYDEAGP [ACTA1_Y364_I359L] | 1.39
85 | YDGKEYDPVEA [MAPRE2_Y167] | 0.935
86 | KDPPDYKYQPR [SOX9_Y172_H169P] | 0.747
87 | NVLPEYKLQAP [KCNH2_Y388_D383N] | 0.677
88 | VRTGIYHGGEP [PIK3CA_Y361] | 0.496
89 | PLGVLYKVKVY [PTS_Y128_V124L] | 0.876
90 | HKANEYYPVVI [ADAMTS18_Y764_L769I] | 0.61
91 | RAQIRYAQEHD [NSD1_Y1987_R1984Q] | 0.889
92 | RSSKMYPKTRS [LPL_Y329_L330P] | 1.2
93 | IEELTYIIKQD [STX5_Y137] | 0.801
94 | GRVFVYRLSEQ [ITGAE_Y551_YF] | 0.655
95 | IYHLSYLHNCE [PDE6B_Y227] | 3.41
96 | CDGKEYDPVEA [MAPRE2_Y167_Y162C] | 0.883
97 | PGAPAYRVLME [MYO5A_Y1245] | 1.52
98 | AVARPYHIQKW [ACSBG1_Y677_A673V] | 0.573
99 | QRIHNYFEHRF [HCN4_Y554_D553N_YF] | 0.34

target: Fes (UniProt P07332); assay: as above
Sequence (P07332 whole entry, looked up): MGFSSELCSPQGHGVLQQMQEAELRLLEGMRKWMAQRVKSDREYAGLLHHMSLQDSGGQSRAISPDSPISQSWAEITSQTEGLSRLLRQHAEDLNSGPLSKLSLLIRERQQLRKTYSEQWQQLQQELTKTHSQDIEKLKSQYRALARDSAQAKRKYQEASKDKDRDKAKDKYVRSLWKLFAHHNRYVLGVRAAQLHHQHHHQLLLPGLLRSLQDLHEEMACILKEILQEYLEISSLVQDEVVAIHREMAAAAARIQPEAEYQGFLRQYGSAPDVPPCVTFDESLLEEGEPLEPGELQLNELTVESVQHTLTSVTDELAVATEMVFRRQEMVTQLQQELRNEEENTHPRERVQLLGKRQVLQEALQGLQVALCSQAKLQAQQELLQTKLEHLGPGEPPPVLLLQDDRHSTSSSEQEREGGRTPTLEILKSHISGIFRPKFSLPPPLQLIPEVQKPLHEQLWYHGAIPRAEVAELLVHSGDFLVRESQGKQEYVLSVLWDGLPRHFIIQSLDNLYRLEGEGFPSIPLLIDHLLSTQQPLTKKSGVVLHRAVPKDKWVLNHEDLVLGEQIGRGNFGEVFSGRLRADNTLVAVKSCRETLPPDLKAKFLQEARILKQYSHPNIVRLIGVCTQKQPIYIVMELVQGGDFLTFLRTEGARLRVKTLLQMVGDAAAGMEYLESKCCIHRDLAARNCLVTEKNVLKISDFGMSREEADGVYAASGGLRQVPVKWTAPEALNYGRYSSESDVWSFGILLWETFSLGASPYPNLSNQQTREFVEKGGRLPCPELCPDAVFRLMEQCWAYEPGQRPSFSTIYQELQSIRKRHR

Row | Sequence | phosphorylation enrichment
100 | PRIHSYRGHLW [VHL_Y112_R107P] | 1.08
101 | RELSWYRGQRP [HESX1_Y106_R109Q] | 0.901
102 | STFVPCEIKVQ [L1CAM_Y784_Y784C] | 1.61
103 | NPQKSYFILLF [WAS_Y83_R86L_YF] | 0.969
104 | PADSGYPAYLG [ATP6V1A_Y374] | 1.51
105 | SFPSTYRFERG [INPPL1_Y661_P659S_YF] | 0.652
106 | YGMQLYQKYMH [GRB14_Y347_N349K] | 0.694
107 | RAIGYYSATSK [FAM120A_Y328] | 0.631
108 | IMAFFYMCDRA [CASD1_Y382_YF] | 1.63
109 | EEEPVYKAEPE [HCLS1_Y360_E361K] | 1.49
110 | EEAAGYAQESQ [CAMKV_Y491] | 1.39
111 | RPFFLYVAFHN [SGSH_Y174_D179N] | 0.918
112 | RFLKDYGEFEV [GINS1_Y156_C152Y_YF] | 1.39
113 | FGAHNHHPLPV [OAT_Y55_Y55H_YF] | 0.636
114 | ERSMSYSDESR [SMG1_Y143] | 0.912
115 | DLEKTYNTFRS [B4GALNT2_Y538_A533D_YF] | 0.851
116 | ARAHKYHGGGG [HBB_Y146_L142R] | 0.443

Row | Sequence | phosphorylation enrichment
117 | LTKQEYDEAGP [ACTA1_Y364_I359L] | 1.71
118 | YDGKEYDPVEA [MAPRE2_Y167] | 1.42
119 | KDPPDYKYQPR [SOX9_Y172_H169P] | 0.788
120 | NVLPEYKLQAP [KCNH2_Y388_D383N] | 0.949
121 | VRTGIYHGGEP [PIK3CA_Y361] | 0.659
122 | PLGVLYKVKVY [PTS_Y128_V124L] | 1.4
123 | HKANEYYPVVI [ADAMTS18_Y764_L769I] | 0.746
124 | RAQIRYAQEHD [NSD1_Y1987_R1984Q] | 0.816
125 | RSSKMYPKTRS [LPL_Y329_L330P] | 0.675
126 | IEELTYIIKQD [STX5_Y137] | 1.52
127 | GRVFVYRLSEQ [ITGAE_Y551_YF] | 1.02
128 | IYHLSYLHNCE [PDE6B_Y227] | 1.54
129 | CDGKEYDPVEA [MAPRE2_Y167_Y162C] | 1.66
130 | PGAPAYRVLME [MYO5A_Y1245] | 1.29
131 | AVARPYHIQKW [ACSBG1_Y677_A673V] | 0.584
132 | QRIHNYFEHRF [HCN4_Y554_D553N_YF] | 0.692
